# From doi:10.1101/2025.10.18.683246 (bioRxiv, 2025)
# T1: N-terminal cleavage product of CLCA1 (NTP) (human, UniProt A8K7I4 22-694, N-glycans at Asn503 and Asn585)
# T1 sequence (looked up): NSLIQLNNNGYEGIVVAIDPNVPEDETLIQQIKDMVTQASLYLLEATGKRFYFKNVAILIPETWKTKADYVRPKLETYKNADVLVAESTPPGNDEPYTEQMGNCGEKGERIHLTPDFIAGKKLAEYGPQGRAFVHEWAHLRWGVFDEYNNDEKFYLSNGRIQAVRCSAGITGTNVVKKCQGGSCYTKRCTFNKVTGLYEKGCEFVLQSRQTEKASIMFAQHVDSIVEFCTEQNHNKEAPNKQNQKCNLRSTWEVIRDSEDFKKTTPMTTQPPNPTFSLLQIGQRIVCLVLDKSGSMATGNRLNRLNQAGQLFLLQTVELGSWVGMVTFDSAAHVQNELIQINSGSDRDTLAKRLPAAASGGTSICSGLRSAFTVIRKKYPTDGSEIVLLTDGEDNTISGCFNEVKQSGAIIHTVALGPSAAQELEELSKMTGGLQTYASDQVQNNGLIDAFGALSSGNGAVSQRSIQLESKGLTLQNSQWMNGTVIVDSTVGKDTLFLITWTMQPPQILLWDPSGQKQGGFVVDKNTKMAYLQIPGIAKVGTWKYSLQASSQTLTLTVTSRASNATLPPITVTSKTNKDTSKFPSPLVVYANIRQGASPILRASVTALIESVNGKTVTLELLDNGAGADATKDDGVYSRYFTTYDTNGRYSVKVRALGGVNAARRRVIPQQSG
# Columns and labels:
# [1] = biological target: the molecule itself; test: SDS-PAGE with or without DTT and Western blot
# [2] = biological target: T1, N-terminal cleavage product of CLCA1 …; test: cryo-EM structure
binder,measurement,setting,value
"C-terminal cleavage product of CLCA1 (CTP) (domain or fragment, human, UniProt A8K7I4 695-914, looked up, N-glycans at Asn770, Asn804, Asn810, Asn831 and Asn836) ALYIPGWIENDEIQWNPPRPEINKDDVQHKQVCFSRTSSGGSFVASDVPNAPIPDLFPPGQITDLKAEIHGGSLINLTWTAPGDDYDHGTAHKYIIRISTSILDLRDKFNESLQVNTTALIPKEANSEEVFLFKPENITFENGTDLFIAIQAVDKVDLKSEISNIARVSLFIPPQTPPETPSPDETSAPCPNIHINSTIPGIHILKIMWKWIGELQLSIA",binding result,[1],binds
same,binding result,[2],binds
